In paper doi:10.1101/2024.05.31.596772:

Biological target: microtubules (pig (purified from porcine brain))
Assay: co-sedimentation

Chain of CKK dimer (mRFP1-FKBP-CKK and mEGFP-FRB-CKK with rapamycin) (Q80VC9 whole entry, looked up, one chain of several): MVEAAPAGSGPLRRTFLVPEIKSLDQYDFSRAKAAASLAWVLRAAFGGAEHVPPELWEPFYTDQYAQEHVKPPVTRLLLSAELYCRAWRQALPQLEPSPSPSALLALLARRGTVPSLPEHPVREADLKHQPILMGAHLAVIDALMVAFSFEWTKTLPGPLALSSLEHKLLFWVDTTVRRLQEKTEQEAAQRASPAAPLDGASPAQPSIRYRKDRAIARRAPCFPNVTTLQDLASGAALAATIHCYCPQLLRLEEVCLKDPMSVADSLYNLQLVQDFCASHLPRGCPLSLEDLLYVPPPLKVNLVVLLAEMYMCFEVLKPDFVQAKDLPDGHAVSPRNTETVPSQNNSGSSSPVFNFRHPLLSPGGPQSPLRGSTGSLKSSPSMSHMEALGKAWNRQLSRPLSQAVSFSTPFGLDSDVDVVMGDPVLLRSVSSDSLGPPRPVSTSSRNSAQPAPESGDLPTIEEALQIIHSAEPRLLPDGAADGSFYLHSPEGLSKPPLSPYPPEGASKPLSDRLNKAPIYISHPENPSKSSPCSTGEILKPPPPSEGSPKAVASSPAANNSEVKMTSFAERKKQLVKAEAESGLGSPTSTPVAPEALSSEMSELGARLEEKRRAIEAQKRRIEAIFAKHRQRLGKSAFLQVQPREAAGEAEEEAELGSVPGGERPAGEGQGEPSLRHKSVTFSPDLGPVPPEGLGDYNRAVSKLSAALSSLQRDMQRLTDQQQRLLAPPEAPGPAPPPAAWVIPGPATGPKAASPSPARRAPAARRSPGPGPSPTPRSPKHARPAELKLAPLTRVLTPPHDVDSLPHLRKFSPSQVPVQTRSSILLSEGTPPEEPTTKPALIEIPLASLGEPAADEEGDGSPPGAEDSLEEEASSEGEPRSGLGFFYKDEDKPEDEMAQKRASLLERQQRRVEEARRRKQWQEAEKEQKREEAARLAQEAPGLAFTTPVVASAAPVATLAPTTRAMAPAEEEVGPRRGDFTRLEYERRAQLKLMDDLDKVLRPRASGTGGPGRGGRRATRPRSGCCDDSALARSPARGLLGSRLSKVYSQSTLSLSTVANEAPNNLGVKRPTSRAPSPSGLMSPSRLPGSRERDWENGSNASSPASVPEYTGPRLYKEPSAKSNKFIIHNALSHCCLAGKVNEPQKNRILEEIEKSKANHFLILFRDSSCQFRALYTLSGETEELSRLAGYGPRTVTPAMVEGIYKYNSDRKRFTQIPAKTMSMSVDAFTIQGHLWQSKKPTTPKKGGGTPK

Question: For “CKK dimer (mRFP1-FKBP-CKK and mEGFP-FRB-CKK with rapamycin) (from UniProt Q80VC9 1112-1246; Q80VC9 1112-1246) (complex)”, which Kd is on record?
Answer: The Kd was 147 nM.
